Reference: US20190119715
Substitutions are numbered along the chain they refer to. Names may count otherwise.

T1: α-fructosyl hexapeptide (α-fructosyl-valyl-histidyl-leucyl-threonyl-proryl-glutamic acid) (not fully specified)
T1 chain: VHLTPE

B1: CFP-H38-dh2 (CFP-H37 with R64G, F269L) (protein)
chain: MTSNRADTRVIVVGGGGTIGSSTALHLVRSGYAPANITVLDTFEIPSAQSAGHDLNKIMGIDHGNKVNLQMSLEARQMWKEDELFQPFFHNTGRMDCEHTPKGIEKLKKLYQKLHDAGAGLEKTHAWLDNEDEILSKMPLLQRDQIQGWKAIWSQDGGWLAAAKAINAIGQFLKERGVKFGFGGAGSFKQPLFDDEGTTCIGVETADGTKYYADKVVLAAGAWSPTLVDLEDQCCSKAWVYAHIQLTPEEAAEYKGVPVVYNGEFGFFLEPDEFGVIKVCDEFPGFSRFKEHQPYGAPSPKRISVPRSHAKHPTDTYPDASEVSIKKAIATFLPRFQDKELFNRALCWCTDTADSTLLMCEHPKWKNFILATGDSGHSFKILPNVGKYVVELIEGRLPEEMAYQWRWRPGGDALKSRRAAPPKDLADMPGWKHDPKL
B2: CFP-H40-dh2 (CFP-H37 with R64G, H99S, L110Y, F269L) (protein)
chain: B1 chain with H99S, L110Y
B3: CFP-H38-dh3 (CFP-H37 with R64G, C280Q) (protein)
chain: B1 chain with L269F, C280Q
B4: CFP-H38-dh1 (CFP-H37 with R64G, F269M) (protein)
chain: B1 chain with L269M
B5: CFP-H38 (CFP-T7-H37-R64G), modified amadoriase derived from Coniochaeta sp. (protein)
chain: B1 chain with L269F
B6: CFP-H40-dh1 (CFP-H37 with R64G, H99S, L110Y, F269M) (protein)
chain: B1 chain with H99S, L110Y, L269M
B7: CFP-H40-dh4 (CFP-H37 with R64G, H99S, L110Y, F269M, C280Q) (protein)
chain: B1 chain with H99S, L110Y, L269M, C280Q
B8: CFP-H40-dh3 (CFP-H37 with R64G, H99S, L110Y, C280Q) (protein)
chain: B1 chain with H99S, L110Y, L269F, C280Q
B9: CFP-H40 (CFP-T7-H37-R64G/L110Y/H99S), modified amadoriase derived from Coniochaeta sp. (protein)
chain: B1 chain with H99S, L110Y, L269F

What was measured:
[1] = biological target: T1, α-fructosyl hexapeptide …
[2] = biological target: hemoglobin A1c (HbA1c)
Sequence of hemoglobin A1c (HbA1c) (chain, as listed by the source, chain 1 of 2): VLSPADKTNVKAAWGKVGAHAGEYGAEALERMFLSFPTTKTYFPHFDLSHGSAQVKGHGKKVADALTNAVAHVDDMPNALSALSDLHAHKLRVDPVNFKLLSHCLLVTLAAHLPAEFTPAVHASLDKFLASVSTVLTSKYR
Sequence of hemoglobin A1c (HbA1c) (chain, as listed by the source, chain 2 of 2): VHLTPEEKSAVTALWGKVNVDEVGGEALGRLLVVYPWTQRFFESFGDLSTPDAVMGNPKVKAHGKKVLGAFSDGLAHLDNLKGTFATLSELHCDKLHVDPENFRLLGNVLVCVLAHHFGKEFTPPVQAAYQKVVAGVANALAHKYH

Protein | Dehydrogenase activity (%) with 1 mM αF6P as substrate, relative to oxidase activity of CFP-H38 = 100 [1] [%] | OX/DH (%) relative to CFP-H38 = 100 [1] [%] | OX/DH (ratio of oxidase to dehydrogenase activity, αF6P as substrate) [1] | Oxidase activity (%) with 1 mM αF6P as substrate, relative to oxidase activity of CFP-H38 = 100 [1] [%] | Dehydrogenase activity (%) with 1 mM αF6P as substrate, relative to oxidase activity of CFP-H40 = 100 [1] [%] | OX/DH (%) relative to CFP-H40 = 100 [1] [%] | Oxidase activity (%) with 1 mM αF6P as substrate, relative to oxidase activity of CFP-H40 = 100 [1] [%] | dehydrogenase activity of a 38.4 mg/ml CFP-H38-dh3 solution [1] | dehydrogenase activity of an 8.8 mg/ml CFP-H38-dh3 solution [1] | current response on a screen-printed carbon electrode at 83, 166, 249 and 332 µg/ml HbA1c [2] | dehydrogenase activity on HbA1c (absorbance at 433 nm, WST-3) [2]
B1 | 8.23 | 30.7 | 3.43 | 28.3 | – | – | – | – | – | – | –
B2 | – | – | 1.4 | – | 5.4 | 23 | 7.5 | – | – | – | –
B3 | 3.22 | 2.7 | 0.3 | 1 | – | – | – | 38.4 mg/ml (17.8 U/ml) CFP-H38-dh3 solution | 8.8 mg/ml (4.1 U/ml) CFP-H38-dh3 solution | HbA1c was quantified with high accuracy using CFP-H38-dh3 | a significant increase was observed in the absorbance, compared with the control. That is, it was confirmed that CFP-H38-dh3 exhibited dehydrogenase activity on HbA1c
B4 | 24 | 20 | 2.23 | 53.4 | – | – | – | – | – | – | –
B5 | 8.94 | 100 | 11.2 | 100 | – | – | – | – | – | – | –
B6 | – | – | 1.3 | – | 16 | 21 | 21 | – | – | – | –
B7 | – | – | 0.35 | – | 5.4 | 5.7 | 1.9 | – | – | – | –
B8 | – | – | 0.45 | – | 29 | 7.3 | 13 | – | – | – | –
B9 | – | – | 6.2 | – | 16 | 100 | 100 | – | – | – | –
